{"source": "paper PMC4452428", "about": "(Biotechnology and bioengineering, 2015)", "molecules": {"B1": {"name": "P99 beta-lactamase (protein, UniProt P05364 21-381, looked up)", "Beta-lactamase": "TPVSEKQLAEVVANTITPLMKAQSVPGMAVAVIYQGKPHYYTFGKADIAANKPVTPQTLFELGSISKTFTGVLGGDAIARGEISLDDAVTRYWPQLTGKQWQGIRMLDLATYTAGGLPLQVPDEVTDNASLLRFYQNWQPQWKPGTTRLYANASIGLFGALAVKPSGMPYEQAMTTRVLKPLKLDHTWINVPKAEEAHYAWGYRDGKAVRVSPGMLDAQAYGVKTNVQDMANWVMANMAPENVADASLKQGIALAQSRYWRIGSMYQGLGWEMLNWPVEANTVVEGSDSKVALAPLPVAEVNPPAPPVKASWVHKTGSTGGFGSYVAFIPEKQIGIVMLANTSYPNPARVEAAYHILEALQ"}}, "key": {"[1]": {"test": "Michaelis-Menten kinetics, colorimetric nitrocefin assay", "type": "biochemical", "settings": "nitrocefin 10 μM to 500 μM, 96-well, triplicate"}, "[2]": {"tested_on": "MHC II alleles DRB1*0101, 0401, 0701, and 1501", "settings": "IC50≥100 μM; average per protein for designs"}}}
{"molecule": "B1", "values": [{"measurement": "Km", "setting": "[1]; non-linear regression, biological duplicate", "value": "80 ± 10", "unit": "µM"}, {"measurement": "kcat", "setting": "[1]; non-linear regression, enzymes purified and assayed in biological duplicate", "value": "360 ± 20", "unit": "s⁻¹"}, {"measurement": "kcat/Km", "setting": "[1]; biological duplicate", "value": "4.6 ± 0.7", "unit": "s^−1μM^−1"}, {"measurement": "non-binding peptides out of 36", "setting": "[2]", "value": "13/36"}]}
